The results in this text go back to patent publication US20230121197A1, “ANTIBODIES SPECIFICALLY BINDING THE CARBOXYMETHYLATED CATALYTIC SUBUNIT OF PROTEIN PHOSPHATASE 2A” (Medizinische Universität Wien, priority 2020, published 2023).

Assay [1] has as its target T1, carboxymethylated PP2Ac C-terminal peptide (ac-[…]-CH3) (Homo sapiens, UniProt P67775).
T1 construct: The following 11-mer peptides corresponding to the carboxymethylated or non-methylated carboxy-terminus of PP2A and PP4 catalytic subunits were used as antigens
Kind of assay: Surface plasmon resonance (Biacore T200), steady state analysis, carboxymethylated PP2Ac peptide. It is filed as binding. The method, then: The differential affinity of anti-carboxymethylated PP2Ac antibodies, 7C10-C5 and 2A10, to carboxymethylated PP2A catalytic subunit versus noncarboxymethylated PP2A catalytic subunit was determined by surface plasmon resonance (SPR) on a Biacore T200 (GE Healthcare) at the Core Facility Biomolecular & Cellular Analysis (University of Natural Resources and Life Sciences Vienna BOKU). The affinity of 7C10-C5 for carboxymethylated and noncarboxymethylated catalytic subunit of PP4 (PP4c), a PP2A-related phosphatase, was also determined. […] The KD of the binding of 7C10-C5 (or 2A10) to non-carboxymethylated PP2Ac or PP4c could not be determined because at the highest analyte sample concentration (5000 nM) only very weak binding signals were detected indicating KD values of at least >5000 nM or higher. […]
SPR experiments were performed with the BiacoreT200 instrument (Cytiva). […] The sensorgrams obtained were analyzed with BiacoreT200 Evaluation Software (version 3.1). […]
(Surface plasmon resonance follows binding to a sensor surface in real time, without labels.)

Assay [2] addresses T2, PP6c peptides L305, meL305 (Homo sapiens, UniProt O00743).
T2 construct: carboxymethylated versus non-methylated PP2Ac, PP4c and PP6c C-terminal undecapeptides
Kind of assay: ELISA with PP6c C-terminal undecapeptides. It is filed as binding. The method, then:
To further characterize the carboxymethyl-PP2Ac specificity of monoclonal antibody 7C10-C5 ELISAs were performed on carboxymethylated versus non-methylated PP2Ac, PP4c and PP6c C-terminal undecapeptides.
Specifically, flat-bottom Nunc-Immuno Medisorp 96-well ELISA plates (Thermo; 467320) were coated o/n at 4° C. with 50 μl of either a peptide of the sequence ac-HVTRRTPDYFL-OH (L309) (SEQ ID NO:18) at a concentration of 2 μg/ml in TBS (137 mM NaCl (AppliChem, #131659, 2.7 mM KCl (AppliChem, #131494), 24.8 mM Tris (AppliChem, #A1086), pH 7.4 with HCl), a peptide of the sequence ac-HVTRRTPDYFL-CH3 (meL309) (SEQ ID NO:18) 2 μg/ml in TBS, with a peptide of the sequence (ac-PSKKPVADYFL (L307) (SEQ ID NO:20) at a concentration of 2 μg/ml in TBS or with a peptide of the sequence ac-PSKKPVADYFL-CH3 (meL307) (SEQ ID NO:20) at a concentration of 2 μg/ml in TBS, with a peptide of the sequence ac-IPPRTTTPYFL (L305) (SEQ ID NO:22) at a concentration of 2 μg/ml in TBS or with a peptide of the sequence ac-IPPRTTTPYFL-CH3 (meL305) (SEQ ID NO:22) at a concentration of 2 μg/ml in TBS. […] Bound antibodies were detected colorimetrically by addition of 50 μl of 33 μg/ml […] (TMB) (Sigma, T2885) in 0.1 M sodium acetate pH 6.0 and 0.01% H2O2 (Sigma, H1009). […] The results from 560 nm read were subtracted from the 450 nm read.
(In general: ELISA stands for enzyme-linked immunosorbent assay.)

B1: 7C10-C5: α-carboxymethylation specific mouse monoclonal IgG1 antibody from single clone hybridoma 7C10-C5 (DSM ACC3350) (antibody)
heavy: MYRMQLLSCIALSLALVTNSDVQLQESGPGLVKPSQSLSLTCSVTGYSITSGYYWNWIRQFPGNKLEWMGYISYDGSNNYNPSLKNRISITRDTSKNQFFLKLNSVTTEDTATYYCAGRFAYWGQGTLVTVSAAKTTAPSVYPLAPVCGDTTGSSVTLGCLVKGYFPEPVTLTWNSGSLSSGVHTFPAVLQSDLYTLSSSVTVTSSTWPSQSITCNVAHPASSTKVDKKIEPRGPTIKPCPPCKCPAPNLLGGPSVFIFPPKIKDVLMISLSPIVTCVVVDVSEDDPDVQISWFVNNVEVHTAQTQTHREDYNSTLRVVSALPIQHQDWMSGKEFKCKVNNKDLPAPIERTISKPKGSVRAPQVYVLPPPEEEMTKKQVTLTCMVTDFMPEDIYVEWTNNGKTELNYKNTEPVLDSDGSYFMYSKLRVEKKNWVERNSYSCSVVHEGLHNHHTTKSFSRTPGK
light: MDMRVPAQLLGLLLLWLSGARCDVLMTQTPLSLPVSLGDQASISCRSSQSIVHSNGNTYLEWYLQKPGQSPKLLIYKVSNRFSGVPDRFSGSGSGTDFTLKINRVEAEDLGVYYCFQGSHVPWTFGGGTKLEIKADAAPTVSIFPPSSEQLTSGGASVVCFLNNFYPKDINVKWKIDGSERQNGVLNSWTDQDSKDSTYSMSSTLTLTKDEYERHNSYTCEATHKTSTSPIVKSFNRNEC
modifications: Amino acid sequence of the recombinant 7C10-C5 heavy chain; Amino acid sequence of the recombinant 7C10-C5 light chain
The term Kd denotes the equilibrium constant for the complex coming apart. A lower Kd goes with higher affinity. As for B1, in assay [1] (SPR steady-state affinity model, carboxymethylated PP2Ac 11-mer peptide (SEQ ID NO:18)), the Kd was at most 20 nM. This molecule showed an Rmax in assay [1] (steady state analysis, PP2A Me peptide, 360 sec contact time, 40 μL/min) of 25.14 RU. Also, the “carboxymethylated versus non-carboxymethylated PP6c peptide signal” value in assay [2] was “No significant difference”.
